The text below walks through data of article PMC7617353, “Molecular basis of FIGNL1 in dissociating RAD51 from DNA and chromatin” (Science (New York, N.Y.), 2024).

The chains are these.
B2: FIGNL1ΔN(E501Q) (domain or fragment, human, UniProt Q6PIW4 287-674, looked up)
chain: KEDSSLPTFKTAKEQLWVDQQKKYHQPQRASGSSYGGVKKSLGASRSRGILGKFVPPIPKQDGGEQNGGMQCKPYGAGPTEPAHPVDERLKNLEPKMIELIMNEIMDHGPPVNWEDIAGVEFAKATIKEIVVWPMLRPDIFTGLRGPPKGILLFGPPGTGKTLIGKCIASQSGATFFSISASSLTSKWVGEGEKMVRALFAVARCQQPAVIFIDQIDSLLSQRGDGEHESSRRIKTEFLVQLDGATTSSEDRILVVGATNRPQEIDEAARRRLVKRLYIPLPEASARKQIVINLMSKEQCCLSEEEIEQIVQQSDAFSGADMTQLCREASLGPIRSLQTADIATITPDQVRPIAYIDFENAFRTVRPSVSPKDLELYENWNKTFGCGK
notes: Six copies in the cryo-EM hexamer with ATP.Mg2+ and RAD51; also called E501Q mutant; source: E. coli BL21(DE3), purified as the wild type (HisTrap, StrepTrap, SEC)
B3: RAD51 (natural protein, human, UniProt Q06609 1-339, looked up)
chain: MAMQMQLEANADTSVEEESFGPQPISRLEQCGINANDVKKLEEAGFHTVEAVAYAPKKELINIKGISEAKADKILAEAAKLVPMGFTTATEFHQRRSEIIQITTGSKELDKLLQGGIETGSITEMFGEFRTGKTQICHTLAVTCQLPIDRGGGEGKAMYIDTEGTFRPERLLAVAERYGLSGSDVLDNVAYARAFNTDHQTQLLYQASAMMVESRYALLIVDSATALYRTDYSGRGELSARQMHLARFLRMLLRLADEFGVAVVITNQVVAQVDGAAMFAADPKKPIGGNIIAHASTTRLYLRKGRGETRICKIYDSPCLPEAEAMFAINADGVGDAKD
modifications: cysteine reactive RED-MALEIMIDE label (only in the MST with labelled RAD51)
notes: RAD51, expressed without tags; PDB 8R64 holds only residues 2-13 of it; also called RAD51 recombinase

Data set [1] concerns the target T1, RAD51 (human, UniProt Q06609 1-339, cysteine reactive RED-MALEIMIDE label (only in the MST with labelled RAD51)).
T1 chain: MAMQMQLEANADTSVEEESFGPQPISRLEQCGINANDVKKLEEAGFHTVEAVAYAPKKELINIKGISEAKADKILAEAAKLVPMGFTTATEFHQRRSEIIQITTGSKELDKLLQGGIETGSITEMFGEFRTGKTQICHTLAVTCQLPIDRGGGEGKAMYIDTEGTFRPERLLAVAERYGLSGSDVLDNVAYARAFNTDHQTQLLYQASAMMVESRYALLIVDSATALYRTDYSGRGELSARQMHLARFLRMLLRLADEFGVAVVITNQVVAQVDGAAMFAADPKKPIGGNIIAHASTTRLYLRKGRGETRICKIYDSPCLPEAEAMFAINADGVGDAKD
Kind of data set: MST.

In data set [2] the target is T2, FIGNL1ΔN (human FIGNL1 residues 287-674) (human, UniProt Q6PIW4 287-674).
T2 construct: Monomer by SEC-MALLS after purification; hexamer with ATPγS by cryo-EM; source: E. coli BL21(DE3), purified (HisTrap, StrepTrap, SEC Superdex 200 increase)
T2 sequence (looked up): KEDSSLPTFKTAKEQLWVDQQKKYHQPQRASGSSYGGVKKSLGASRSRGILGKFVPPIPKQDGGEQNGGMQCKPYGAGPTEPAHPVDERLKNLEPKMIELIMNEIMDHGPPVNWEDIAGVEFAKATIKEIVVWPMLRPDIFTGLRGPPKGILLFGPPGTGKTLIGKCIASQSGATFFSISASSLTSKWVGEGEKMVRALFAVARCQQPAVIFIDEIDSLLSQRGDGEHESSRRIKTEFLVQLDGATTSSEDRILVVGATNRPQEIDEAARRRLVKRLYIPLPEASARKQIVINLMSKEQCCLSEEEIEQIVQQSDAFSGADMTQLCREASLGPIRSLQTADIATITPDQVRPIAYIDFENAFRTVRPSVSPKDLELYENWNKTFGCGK
Put plainly: cryo-EM structure; 5µM FIGNL1ΔN with 1mM ATPγS and 5mM MgCl2, 15 minutes at 37°C in EM buffer; planar hexamer, 9.2Å map.

Data set [3] has as its target B3. Kind of data set: cryo-EM structure; 10μM FIGNL1ΔN(E501Q) with 10μM RAD51, 1mM ATP, 5mM MgCl2, 20 mM Tris-HCl pH 8.0, 100 mM NaCl, 10 minutes at 37°C; whole complex ~8 Å, focused hexamer with RAD51 N-terminus 2.9 Å. The note with it: both partners purified.
Data set [4] concerns the molecule itself. The description is as above.
For data set [5], the target named is T3, FIGNL1ΔN pore loop 1 mutant (K473E,W474A) (human, UniProt Q6PIW4 287-674, K473E | W474A).
T3 sequence: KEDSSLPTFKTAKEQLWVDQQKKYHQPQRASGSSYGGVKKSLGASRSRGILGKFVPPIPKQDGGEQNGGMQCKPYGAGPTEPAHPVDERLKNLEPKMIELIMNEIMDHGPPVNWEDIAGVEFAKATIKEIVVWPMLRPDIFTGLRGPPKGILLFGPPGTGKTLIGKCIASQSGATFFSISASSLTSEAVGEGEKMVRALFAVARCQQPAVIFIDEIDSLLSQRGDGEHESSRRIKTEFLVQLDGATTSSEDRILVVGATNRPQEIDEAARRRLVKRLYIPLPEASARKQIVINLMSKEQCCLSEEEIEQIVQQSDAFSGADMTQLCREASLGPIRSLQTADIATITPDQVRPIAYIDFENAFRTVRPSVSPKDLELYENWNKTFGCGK
Kind of data set: MST.

Data set [6] deals with T4, FIGNL1ΔN with an N-terminal YBBR-tag, labelled (human, UniProt Q6PIW4 287-674, labelled as previously described (refs 59, 60)).
T4 chain: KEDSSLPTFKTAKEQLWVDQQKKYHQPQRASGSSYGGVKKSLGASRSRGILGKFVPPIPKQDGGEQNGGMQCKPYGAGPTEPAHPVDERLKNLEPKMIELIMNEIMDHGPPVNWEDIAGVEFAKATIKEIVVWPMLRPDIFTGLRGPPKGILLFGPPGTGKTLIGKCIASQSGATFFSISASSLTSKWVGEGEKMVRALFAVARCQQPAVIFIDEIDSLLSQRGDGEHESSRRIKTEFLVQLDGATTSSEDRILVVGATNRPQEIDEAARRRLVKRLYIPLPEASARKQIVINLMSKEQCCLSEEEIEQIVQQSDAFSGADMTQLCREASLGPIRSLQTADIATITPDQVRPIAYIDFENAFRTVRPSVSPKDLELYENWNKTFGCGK
Kind of data set: MST.

The target of data set [7] is T5, FIGNL1ΔN(E501Q) (human, UniProt Q6PIW4 287-674, E501Q).
T5 sequence: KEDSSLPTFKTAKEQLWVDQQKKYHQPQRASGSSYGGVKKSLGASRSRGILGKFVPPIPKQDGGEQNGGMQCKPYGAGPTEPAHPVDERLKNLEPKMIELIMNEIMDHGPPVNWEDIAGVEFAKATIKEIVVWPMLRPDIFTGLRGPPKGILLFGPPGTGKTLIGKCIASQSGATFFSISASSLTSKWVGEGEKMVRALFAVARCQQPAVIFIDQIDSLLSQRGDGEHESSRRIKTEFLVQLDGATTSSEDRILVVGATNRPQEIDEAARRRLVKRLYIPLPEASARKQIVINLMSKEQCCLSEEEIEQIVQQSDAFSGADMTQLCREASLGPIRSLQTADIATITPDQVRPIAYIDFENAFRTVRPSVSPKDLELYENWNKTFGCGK
Put plainly: MST.

For data set [8], the target named is T2, FIGNL1ΔN (human FIGNL1 residues 287-674). Put plainly: MST; 100nM RED-MALEIMIDE labelled RAD51 with a serial dilution of FIGNL1ΔN (and mutants); 20mM Tris pH 8.0, 100mM NaCl, 1mM ATP, 5mM MgCl2, 0.05% TWEEN-20; 25°C. The settings on record: both partners purified.
The target in data set [9] is T6, FIGNL1ΔN pore loop 1 mutant (K473E,W474A) (human, UniProt Q6PIW4 287-674, K473E | W474A).
T6 construct: also called PL mutant; source: E. coli BL21(DE3), purified as the wild type (HisTrap, StrepTrap, SEC)
T6 sequence (looked up): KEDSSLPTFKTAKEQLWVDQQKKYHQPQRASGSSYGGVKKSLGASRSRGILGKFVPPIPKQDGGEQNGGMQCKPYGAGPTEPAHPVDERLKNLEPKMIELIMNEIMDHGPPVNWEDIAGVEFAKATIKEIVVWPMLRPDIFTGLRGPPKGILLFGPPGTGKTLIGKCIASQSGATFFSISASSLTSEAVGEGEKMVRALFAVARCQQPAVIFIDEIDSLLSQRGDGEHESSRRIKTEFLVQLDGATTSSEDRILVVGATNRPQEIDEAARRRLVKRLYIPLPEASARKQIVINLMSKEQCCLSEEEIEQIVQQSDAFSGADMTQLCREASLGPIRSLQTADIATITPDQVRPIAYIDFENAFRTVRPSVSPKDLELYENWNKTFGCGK
Described as above. The note with it: both partners purified.

In data set [10] the target is B2. The data set is described as above. The settings on record: both partners purified.
Data set [11] has as its target T7, FIGNL1ΔN with an N-terminal YBBR-tag, labelled (human, UniProt Q6PIW4 287-674, labelled as previously described (refs 59, 60)).
T7 sequence (looked up): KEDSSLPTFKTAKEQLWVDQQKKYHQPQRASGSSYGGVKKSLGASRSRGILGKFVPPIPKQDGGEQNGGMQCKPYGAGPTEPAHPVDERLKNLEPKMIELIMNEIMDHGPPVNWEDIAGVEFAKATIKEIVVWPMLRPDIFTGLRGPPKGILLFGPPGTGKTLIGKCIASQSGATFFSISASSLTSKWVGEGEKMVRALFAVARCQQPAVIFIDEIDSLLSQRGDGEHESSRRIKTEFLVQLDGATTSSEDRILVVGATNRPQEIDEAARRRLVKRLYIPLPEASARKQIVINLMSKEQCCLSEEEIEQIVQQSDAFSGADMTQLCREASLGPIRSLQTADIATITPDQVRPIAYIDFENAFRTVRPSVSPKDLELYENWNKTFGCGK
Put plainly: MST; 100nM FIGNL1ΔN labelled at an N-terminal YBBR-tag with a serial dilution of RAD51 and RAD51ΔN; measured as in the labelled RAD51 experiments. The note with it: both partners purified.

B1: FIGNL1ΔN (human FIGNL1 residues 287-674) (domain or fragment)
chain: KEDSSLPTFKTAKEQLWVDQQKKYHQPQRASGSSYGGVKKSLGASRSRGILGKFVPPIPKQDGGEQNGGMQCKPYGAGPTEPAHPVDERLKNLEPKMIELIMNEIMDHGPPVNWEDIAGVEFAKATIKEIVVWPMLRPDIFTGLRGPPKGILLFGPPGTGKTLIGKCIASQSGATFFSISASSLTSKWVGEGEKMVRALFAVARCQQPAVIFIDEIDSLLSQRGDGEHESSRRIKTEFLVQLDGATTSSEDRILVVGATNRPQEIDEAARRRLVKRLYIPLPEASARKQIVINLMSKEQCCLSEEEIEQIVQQSDAFSGADMTQLCREASLGPIRSLQTADIATITPDQVRPIAYIDFENAFRTVRPSVSPKDLELYENWNKTFGCGK
Consider B1, for which the Kd with RAD51 [1] stood at 328 nM. In data set [2], this molecule showed a stoichiometry N of 6.
Regarding B2, the “stoichiometry N” value with RAD51 [3] is 2 RAD51 monomers per FIGNL1 hexamer; in data set [4], 6.
Turning to B3, the Kd turned out to be 340 nM in data set [5], 109 nM in data set [6] and 279 nM with FIGNL1ΔN(E501Q) [7]. For the same molecule, the binding result (in data set [8]; in data set [9]; in the data set with FIGNL1ΔN(E501Q) [10]) was “binds” each time.

B4: RAD51ΔN (RAD51 lacking the N-terminal 20 residues) (domain or fragment, human, UniProt Q06609 21-339, looked up)
chain: GPQPISRLEQCGINANDVKKLEEAGFHTVEAVAYAPKKELINIKGISEAKADKILAEAAKLVPMGFTTATEFHQRRSEIIQITTGSKELDKLLQGGIETGSITEMFGEFRTGKTQICHTLAVTCQLPIDRGGGEGKAMYIDTEGTFRPERLLAVAERYGLSGSDVLDNVAYARAFNTDHQTQLLYQASAMMVESRYALLIVDSATALYRTDYSGRGELSARQMHLARFLRMLLRLADEFGVAVVITNQVVAQVDGAAMFAADPKKPIGGNIIAHASTTRLYLRKGRGETRICKIYDSPCLPEAEAMFAINADGVGDAKD
notes: RAD51 lacking the N-terminal 20 residues; also called RAD51 with N-terminal 20 a.a. deleted
For B4, in [11], the binding result is “binds”. For the same molecule, the dissociation constant Kd in data set [6] worked out at 315 nM.
